Measurements taken from patent US20130101592A1 (LYKERA BIOMED, published 2013).

How the values were obtained:
[1] = molecular target: T1, recombinant human S100A1 (Abnova) (human, UniProt P23297 1-94); test: ELISA on purified protein; legend: - no reaction
T1 sequence (looked up): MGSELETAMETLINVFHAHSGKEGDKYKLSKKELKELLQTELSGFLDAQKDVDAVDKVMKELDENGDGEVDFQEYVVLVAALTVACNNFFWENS

recombinant human S100A7 = molecular target: T2, recombinant human S100A7 (human, UniProt P31151 1-101); test: ELISA on purified protein; legend: - no reaction
T2 sequence (looked up): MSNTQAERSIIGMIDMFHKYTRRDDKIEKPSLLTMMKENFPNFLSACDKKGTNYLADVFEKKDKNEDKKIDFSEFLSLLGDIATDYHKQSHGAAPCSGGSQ

[2] = molecular target: recombinant human S100A6 (Abnova) (human, UniProt P06703 1-90); test: ELISA on purified protein; legend: - no reaction
[3] = molecular target: recombinant human S100A2 (Abnova) (human, UniProt P29034 1-98); test: ELISA on purified protein; legend: - no reaction
[4] = molecular target: T3, recombinant murine S100A4 (murine, UniProt P07091 1-101); test: ELISA on purified protein; legend: ++++ positive reaction
T3 construct: also called Mouse S100A4
T3 sequence (P07091 whole entry, one chain of several): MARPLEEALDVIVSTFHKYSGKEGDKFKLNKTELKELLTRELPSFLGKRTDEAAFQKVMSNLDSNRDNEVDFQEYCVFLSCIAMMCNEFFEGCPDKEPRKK

recombinant human S100A2 (Abnova), sequence (P29034 whole entry, one chain of several): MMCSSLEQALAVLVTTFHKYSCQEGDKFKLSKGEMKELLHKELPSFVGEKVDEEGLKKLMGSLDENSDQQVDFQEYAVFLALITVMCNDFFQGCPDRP

- binding result [1]: no binding
- binding result (recombinant human S100A7): no binding
- binding result [2]: no binding
- binding result [3]: no binding
- binding result [4]: binds
B1: monoclonal antibody 5C3 (hybridoma 5C3-1B8-1F4, ECACC 10022401) (antibody, IgG1, V domains shown)
VH: EAQLQQSGAELVKPGASVKLSCTASGFNIQETYMHWVKQRPEQGLEWIGRIDPANGNTKDDPKFQGKASITVDTSSNTAYLQLSSLTSEDTAVYYCASSYAMDYWGQGTSVTVSS
VL: DVLMTQTPLSLPVSLGDQASISCRSSQSIVHSNGNTYLEWYLQKTGQSPELLIYKVSNRLSGVPDRFSGSGSGTDFTLKISRVEAEDLGVYYCFQGSHVPFTFGSGTKLEIK
notes: constant regions are not; also called monoclonal mouse anti-human S100A4 5C3
